{
  "source": "paper PMC9880813",
  "about": "(Genomics, Proteomics & Bioinformatics, 2021)",
  "key": {"[1]": {"target": "YC157-bFos (UniProt P01100 118-210)", "sequence (P01100 118-210)": "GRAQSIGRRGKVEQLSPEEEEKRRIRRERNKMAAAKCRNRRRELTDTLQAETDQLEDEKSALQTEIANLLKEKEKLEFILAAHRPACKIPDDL", "experiment": "split reporter (BiFC, NanoBiT)", "details": "partners not purified"}, "[2]": {"target": "YC157-ΔbFos", "experiment": "split reporter (BiFC, NanoBiT)"}},
  "data": [
    {"binder": "YN157-bJun (domain or fragment, UniProt P05412 257-318, looked up) RKRMRNRIAASKCRKRKLERIARLEEKVKTLKAQNSELASTANMLREQVAQLKQKVMNHVNS", "values": [
      {"measurement": "percentage of fluorescent cells, fold over the negative group (YN157-bJun + YC157-ΔbFos)", "setting": "[1]", "result": 7, "unit": "fold"},
      {"measurement": "signal-to-noise ratio of all cells (against YN157-bJun + YC157-ΔbFos)", "setting": "[1]", "result": 33, "unit": "ratio"},
      {"measurement": "signal-to-noise ratio of fluorescent cells (against YN157-bJun + YC157-ΔbFos)", "setting": "[1]", "result": 4, "unit": "ratio"},
      {"measurement": "fluorescence-positive cell ratio", "setting": "[2]", "result": 0.5, "unit": "%"}
    ]}
  ]
}
